Measurements from ChEMBL document CHEMBL2073843, “Characterization of the role of polar amino acid residues within predicted transmembrane helix 17 in determining the substrate specificity of multidrug resistance protein 3” (Biochemistry, 2003).

Substrate: C[C@]12CC[C@@H]3c4ccc(O)cc4CC[C@H]3[C@@H]1CC[C@@H]2O[C@@H]1O[C@H](C(=O)O)[C@@H](O)[C@H](O)[C@H]1O
Details: HEK293; Membrane vesicle
Description: TP_TRANSPORTER: uptake in membrane vesicles from MRP3-expressing HEK cells

B1: Multidrug resistance associated protein (Homo sapiens), Q96QA9 (protein)
chain: MDALCGSGELGSKFWDSNLSVHTENPDLTPCFQNSLLAWVPCIYLWVALPCYLLYLRHHCRGYIILSHLSKLKMVLGVLLWCVSWADLFYSFHGLVHGRAPAPVFFVTPLVVGVTMLLATLLIQYERLQGVQSSGVLIIFWFLCVVCAIVPFRSKILLAKAEGEISDPFRFTTFYIHFALVLSALILACFREKPPFFSAKNVDPNPYPETSAGFLSRLFFWWFTKMAIYGYRHPLEEKDLWSLKEEDRSQMVVQQLLEAWRKQEKQTARHKASAAPGKNASGEDEVLLGARPRPRKPSFLKALLATFGSSFLISACFKLIQDLLSFINPQLLSILIRFISNPMAPSWWGFLVAGLMFLCSMMQSLILQHYYHYIFVTGVKFRTGIMGVIYRKALVITNSVKRASTVGEIVNLMSVDAQRFMDLAPFLNLLWSAPLQIILAIYFLWQNLGPSVLAGVAFMVLLIPLNGAVAVKMRAFQVKQMKLKDSRIKLMSEILNGIKVLKLYAWEPSFLKQVEGIRQGELQLLRTAAYLHTTTTFTWMCSPFLVTLITLWVYVYVDPNNVLDAEKAFVSVSLFNILRLPLNMLPQLISNLTQASVSLKRIQQFLSQEELDPQSVERKTISPGYAITIHSGTFTWAQDLPPTLHSLDIQVPKGALVAVVGPVGCGKSSLVSALLGEMEKLEGKVHMKGSVAYVPQQAWIQNCTLQENVLFGKALNPKRYQQTLEACALLADLEMLPGGDQTEIGEKGINLSGGQRQRVSLARAVYSDADIFLLDDPLSAVDSHVAKHIFDHVIGPEGVLAGKTRVLVTHGISFLPQTDFIIVLADGQVSEMGPYPALLQRNGSFANFLCNYAPDEDQGHLEDSWTALEGAEDKEALLIEDTLSNHTDLTDNDPVTYVVQKQFMRQLSALSSDGEGQGRPVPRRHLGPSEKVQVTEAKADGALTQEEKAAIGTVELSVFWDYAKAVGLCTTLAICLLYVGQSAAAIGANVWLSAWTNDAMADSRQNNTSLRLGVYAALGILQGFLVMLAAMAMAAGGIQAARVLHQALLHNKIRSPQSFFDTTPSGRILNCFSKDIYVVDEVLAPVILMLLNSFFNAISTLVVIMASTPLFTVVILPLAVLYTLVQRFYAATSRQLKRLESVSRSPIYSHFSETVTGASVIRAYNRSRDFEIISDTKVDANQRSCYPYIISNRWLSIGVEFVGNCVVLFAALFAVIGRSSLNPGLVGLSVSYSLQVTFALNWMIRMMSDLESNIVAVERVKEYSKTETEAPWVVEGSRPPEGWPPRGEVEFRNYSVRYRPGLDLVLRDLSLHVHGGEKVGIVGRTGAGKSSMTLCLFRILEAAKGEIRIDGLNVADIGDPILFSGTLRMNLDPFGSYSEEDIWWALELSHLHTFVSSQPAGLDFQCSEGGENLSVGQRQLVCLARALLRKSRILVLDEATAAIDLETDNLIQATIRTQFDTCTVLTIAHRLNTIMDYTRVLVLDKGVVAEFDSPANLIAARGIFYGMARDAGLA
- Km: 29 µM
